According to patent US20240151714A1:

Experiments:
[1] = molecular target: hCG-first DNA conjugate (human) (UniProt P01215); assay: cell-based or functional assay
[2] = molecular target: hCG-second DNA conjugate (human) (UniProt P01215); assay: cell-based or functional assay
Sequence of hCG-second DNA conjugate (human) (P01215 other isoform, or with tags, fused parts or gaps limits assumed, chain 1 of 2, other chains not shown): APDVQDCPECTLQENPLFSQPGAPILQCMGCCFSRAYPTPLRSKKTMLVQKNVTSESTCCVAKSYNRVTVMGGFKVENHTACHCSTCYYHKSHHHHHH

Sequence of hCG-first DNA conjugate (human) (P01215 other isoform, or with tags, fused parts or gaps limits assumed, chain 1 of 2, other chains not shown): as above

limit of detection (LOD) for the antibody, PPR-based immunoassay (absorbance at 405 nm) [1]: 9.83 pM | limit of detection (LOD) for the antibody, PPR-based immunoassay (absorbance at 405 nm) [2]: 9.83 pM
Substance: hCG monoclonal antibody (MA5-14680; Thermo Fisher Scientific)
